Measured values: patent US20090148434A1 (published 2009)
One block for each binder: values may come before it.

How the values were obtained:
human p55 TNF receptor = molecular target: T1, human p55 TNF receptor (human, UniProt P19438 30-211, limits assumed)
T1 construct: also called TNF Receptor 1; TNFR1
T1 sequence (looked up): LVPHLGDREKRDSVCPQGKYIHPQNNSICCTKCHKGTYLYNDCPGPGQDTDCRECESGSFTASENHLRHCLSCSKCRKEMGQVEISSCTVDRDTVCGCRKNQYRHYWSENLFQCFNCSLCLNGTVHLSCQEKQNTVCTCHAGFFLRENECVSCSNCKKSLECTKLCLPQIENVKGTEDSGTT

human serum albumin = molecular target: T2, human serum albumin (human, UniProt P02768 25-609); test: not stated; IC50/Kd, called Kd in paragraph 434
T2 construct: also called HSA

Kd (human p55 TNF receptor): 10 to 15 nM
B1: TAR2h10-55 (other)
VH: STEVQLLESGGGLVQPGGSLRLSCAASGFPFEWYWMGWVRQAPGKGLEWVSAISGSGDSTYYADSVKGRFTISRDNSKNTLYQQMNSLRAEDAAVYYCAKVKLGGGPNFGYRGQGTLVTVSSAAAEQKLISEEDLN
notes: expressed from pDOM5; also called TAR2h10-55 dAb

Kd (human serum albumin): 800 nM
B2: TAR3h-23 (other)
VH: STEVQLLESGGGLVQPGGSLRLSCAASGFTFYDYNMSWVRQAPGKGLEWVSTITHTGGVTYYADSVKGRFTISRDNSKNTLYLQMNSLRAEDTAVYYCAKQNPSYQFDYWGQGTLVTVSSAAAEQKLISEEDLN
notes: anti-HSA VH dAb expressed from pDOM5

Kd (human serum albumin): 200 nM
B3: TAR3h-26 (other)
VH: STEVQLLESGGGLVQPGGSLRLSCTASGFTFDEYNMSWVRQAPGKGLEWVSTILPHGDRTYYADSVKGRFTISRDNSKNTLYLQMNSLRAEDTAVYYCAKQDPLYRFDYWGQGTLVTVSSAAAEQKLISEEDLN
notes: as for B2

Kd (human serum albumin): 50 nM
B4: TAR3h-22 (other)
VH: STEVQLLESGGGLVQPGGSLRLSCAASGFTFSKYWMSWVRQAPGKGLEWVSSIDFMGPHTYYADSVKGRFTISRDNSKNTLYLQMNSLRAEDTAVYYCAKGRTSMLPMKGKFDYWGQGTLVTVSSAAAEQKLISEEDLN
notes: as for B2
